Laboratory results: patent US20090305946A1

What was measured:
[1] = molecular target: full-length human Presenilin-1 (human) (UniProt P49768); experiment: [^35S]-GTPγS labelling of extracts of co-transfected ES cells, immunoprecipitation with anti-PS-1
[2] = molecular target: full-length human Presenilin-2 (human) (UniProt P49810); experiment: ^35S-GTPγS incorporation in extracts of co-transfected ES cells, immunoprecipitation with anti-PS MAb, scintillation counting
[3] = molecular target: full-length human Presenilin-1 (human) (UniProt P49768); experiment: ^35S-GTPγS incorporation in extracts of co-transfected ES cells, immunoprecipitation with anti-PS-1 loop MAb, scintillation counting
[4] = molecular target: endogenous rat PS proteins in rat hippocampal membranes; experiment: cell-based or functional assay
[5] = molecular target: full-length human Presenilin-1 (human) (UniProt P49768); experiment: cell-based or functional assay

human G-protein GαoA, sequence (P09471 2-354): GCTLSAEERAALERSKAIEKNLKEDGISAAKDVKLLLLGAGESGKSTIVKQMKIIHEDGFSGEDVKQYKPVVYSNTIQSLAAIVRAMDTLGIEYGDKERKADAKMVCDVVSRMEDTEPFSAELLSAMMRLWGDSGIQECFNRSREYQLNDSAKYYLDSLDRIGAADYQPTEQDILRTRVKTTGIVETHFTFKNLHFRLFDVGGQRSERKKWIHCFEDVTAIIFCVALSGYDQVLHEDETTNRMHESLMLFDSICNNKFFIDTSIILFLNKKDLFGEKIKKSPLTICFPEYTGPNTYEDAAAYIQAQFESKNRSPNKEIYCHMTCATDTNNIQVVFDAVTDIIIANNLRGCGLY
soluble ectodomain of human β-APP, baculovirus-derived, sequence (P05067 18-701): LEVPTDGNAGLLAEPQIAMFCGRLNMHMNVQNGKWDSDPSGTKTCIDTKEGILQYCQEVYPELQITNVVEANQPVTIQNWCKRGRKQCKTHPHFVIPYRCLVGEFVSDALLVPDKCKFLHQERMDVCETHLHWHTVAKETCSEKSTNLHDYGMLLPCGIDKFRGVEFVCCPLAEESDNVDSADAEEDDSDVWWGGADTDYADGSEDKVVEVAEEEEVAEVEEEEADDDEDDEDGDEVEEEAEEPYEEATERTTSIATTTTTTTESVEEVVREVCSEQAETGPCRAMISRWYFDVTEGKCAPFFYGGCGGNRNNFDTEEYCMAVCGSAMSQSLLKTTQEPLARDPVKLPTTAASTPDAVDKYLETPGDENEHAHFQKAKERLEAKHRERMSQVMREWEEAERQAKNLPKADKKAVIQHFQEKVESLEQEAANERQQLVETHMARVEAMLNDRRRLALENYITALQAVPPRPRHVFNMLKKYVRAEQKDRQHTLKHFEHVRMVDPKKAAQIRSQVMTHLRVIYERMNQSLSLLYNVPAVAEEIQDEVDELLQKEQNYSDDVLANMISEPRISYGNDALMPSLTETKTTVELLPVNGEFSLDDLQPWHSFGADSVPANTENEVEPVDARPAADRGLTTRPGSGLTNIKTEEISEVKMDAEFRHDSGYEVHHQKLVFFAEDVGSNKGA

In the case of “human G-protein GαoA (from UniProt P09471 2-354)”, the fold increase in ^35S-incorporation immunoprecipitated with antibody to PS-1 [1] is reported as 8 fold, the % increase in ^35S-GTPγS binding over untransfected control [2] is reported as 700% and the ^35S-GTPγS incorporation, % of untransfected control [3] is reported as 700%.

With “soluble ectodomain of human β-APP, baculovirus-derived (from UniProt P05067 18-701) (ligand)” the ^35S-GTPγS incorporation in solubilized rat hippocampal membranes [4] was 600 % increase, the ^35S-GTPγS incorporation in solubilized rat hippocampal membranes (% greater than untreated) [4] was 100 and the ^35S-GTPγS incorporation (Gαo) in PS-1-only APP-/- fibroblasts [5] was 500 % increase.

For “full-length human β-amyloid precursor protein (from UniProt P05067 18-770) (ligand)”, the ^35S-GTPγS incorporation (Gαo immunoprecipitated with K-20), high density co-culture (% increase over basal) [5] was 200, the ^35S-GTPγS incorporation (Gαo immunoprecipitated with K-20), high density co-culture with PTx (% lower than basal) [5] was 38 and the ^35S-GTPγS incorporation (Gαo immunoprecipitated with K-20), low density co-culture (% increase over basal) [5] was 33.
